Measurements taken from the DeepSol protein solubility set.

Test: soluble on expression in E. coli; label from the status in PepcDB or PDB records

| Sequence | soluble on expression in E. coli |
| --- | --- |
| MCHNGRMESLSLSHHFLIAMPGMGDPLFAKSLVYLCEHGEHGAMGLIINKPSGIAMAQLFDQIDLPLDDEDTRTGLVYFGGPVQPDRGFVLHQPAGNWQSSLMVTDDIALTTSKDVLVAVSEGKKPEQLLISLGYAGWSAGQLEKEIADNGWLTVPAEPSIVFDLPYEERYDAAMALLGFDPSLLSSDVGHALEHHHHHH | soluble |
| MCKSCYHCGEDVPANTDFKVEILGEVREMCCPGCETVAQTIVDSGLVSYYQYRTAPAEKADLVPEQLQALIHYDNEDVQSEFVRNHDN | not soluble |
| MCLARSISRRENYKPLKSKVMTKRNVGRPPKNERADHCCMVRFTDTEFARFLTLFEQSGLQNRAAFIKARVFNETFRVIKVDRSLLDYYQKLTTLYGQFRSVGVNYNQTVVALKSNFTEKKAFAMLTKLEKLTLELAIIGGEIVQLTRKFQEKWQHRQ | not soluble |
| MCLEDSDAGASNEYDSSPAAWNKEDFPWSGKVKDILQNVFKLEKFRPLQLETINVTMAGKEVFLVMPTGGGKSLCYQLPALCSDGFTLVICPLISLMEDQLMVLKQLGISATMLNASSSKEHVKWVHAEMVNKNSELKLIYVTPEKIAKSKMFMSRLEKAYEARRFTRIAVDEVHCCSQWGHDFRPDYKALGILKRQFPNASLIGLTATATNHVLTDAQKILCIEKCFTFTASFNRPNLYYEVRQKPSNTEDFIEDIVKLINGRYKGQSGIIYCFSQKDSEQVTVSLQNLGIHAGAYHANLEPEDKTTVHRKWSANEIQVVVATVAFGMGIDKPDVRFVIHHSMSKSMENYYQESGRAGRDDMKADCILYYGFGDIFRISSMVVMENVGQQKLYEMVSYCQNISKCRRVLMAQHFDEVWNSEACNKMCDNCCKDSAFERKNITEYCRDLIKILKQAEELNEKLTPLKLIDSWMGKGAAKLRVAGVVAPTLPREDLEKIIAHFLIQQYLKEDYSFTAYATISYLKIGPKANLLNNEAHAITMQVTKSTQNSFRAESSQTCHSEQGDKKMEAENLYFQSHHHHHHDYKDDDDK | soluble |
| MDAQGLRLITALKLCILATKKDGTPLYSDREQYIFSELYGLEGNEIQNMISLGDKLGLSRERIRQLKVKVFKKFGILRKRNIPAIIDIDNLLTNNHQINLDEVHNFACYLKKFQESHLSEYPIETLFDLAQLYFKQDYSIIKTWKREIKETSTIFPKKQNSQLTDITNKIIWFDHVKSWTLEEIHQITPHRNYDPNKKYLESEAGEFYSNKLQRNVFYESMLEKKFYKRLEKSHEVIYYVEQGITITYDRGKYTPDAIVFLDDGKGFVVEIKPLTEMANQSVQKKFKALLDFCEETGLGATLTDGRTDINHIFETIPNLAFEESILQSLKEFKKLTYGKVNELKNKYQVTTIHLLQCIIKNNLSYNSMPTFIWKTKKPIICDLLLSPENKMLLKGSTDIINNDKTLEHHHHHH | not soluble |
| MDAVRQSFQQLQNELRRDWCGIEAGGLASDYDILVVPSLSLDAHELQKISGVLFYEERLLFSLIRLRDPRTRVIYVTSEPLPPLVIDYYLQLLPGIPFSHARDRLLLLSTCDSSLKPLTQKILERPRLLERIRRALRPGSSFMTCFNSSPLERELSVALRVPLFAADPDLLEWGTKAGSRSLFAECGLPHPAGSPLMDSVEDLAAAAAELWQDQPQAQRFVIKLNQGFSGEGNALLDLRPIAQQSPDRVGLTAASQAIAQQFPVMRFQAAHETWQNFQGRITDLGAIAELFIEGEVKRSPSVQGCIHPSGQVEILSTHDQILGGPDGQIYLGCRFPADPAYRLQLQKWGEQIGEALAQRGALERFGVDFVAVNQGGDHWELQAIEINLRKGGTTHPFMTLKYLTNGYYDPQSGQFCSELGQPKYYVATDNLQSPRYRGVLPQDLMDIIAANQLHFDSSTKTGTVFHLMGCLSQYGKLGLTSIGNSPEQAQALYDEVVSVLDRETDPALEHHHHHH | soluble |
| MDCVVGRKNSAAVLLVLSERKTREEIILKLPDKTQESVIKAIDELERKYRRKFREKFKTITVDNGTEFLDYRGIEKSKTEPGKDRTKVYYAHPYSSWERGTNENINKLIRRFIPKGTDISKVSKAKIKSIERWINEYPRRMFGYRSAIEMAV | soluble |
| MDCWISTDYQSRTGNMAYPCTNRKTADSYYLNRSYQLDRIAVLLFLRQGTNAAMAGYWSSKILATSESNIYMNIILNMGEYSKSQ | not soluble |
| MDDDFVRALNKFNSKFSFRNKKNSLNEVLQKNKRNDKKEDINCNKLKNDLELQYIHSSNNKICQKFLTLPLNKKSDKLKDHSDKIILPVSILKTLEKGNYKNEVEFPYTFSIKNVQNNYITHACVLEFSSNEGIIFVSDNIKENLGLNKPQNSSIARVLITYCILSKCDFIKLDSLNNNINDIKYMKNLLENELSLNYSTLTLGDYIHINHLNFYISELEPDNAVSLINTDINVDICERNNMEGYKNVNILGDHKDIYEIIKIDIPINSSIQKGMNKYKFVLNNNTLDLLKKGKIELAIHLQSQMMLHSLNLFISLPPLDSVSEVLHHLYIDDYSTDEIIINREVIRNILKLHFACMIKEQPYNKNNDNHHANDKEDNVHNGTCNDHHEDDKIEKQNYDDSFLEYIFEHFFPHIIYIGVHNYMDTLVDYSICLKLNGEKNMSTKKDDSNNKCVNTSGFIHNNINLLKNININTQDIDNNNNDDTYITCDNCLKNILKYNIHMHKIHCLKNFTLCNICKKVLKKNEKDNHIHCDICNEGMHKNKKKTHELIWHTQIKCVCDKLLFRKQFIFHQNLFCPKKIIYCTFCNIFTQSNINIYNEEFILATFFDKYDNIKTNNSTVNKSIKYYYNMLFTYFHFFLKYIKNTEHEKYCGSKSINCTICKQIIYRNEYLLHLNTLHHFNKIESFKIINDNADLSQLMN | not soluble |
| MDDDILGLEDVTASEAFKIIYELSKASKIDADRSDAAKAQFTLLHSTLLQALQAERDLLDQAKALKRQKEEQEAAITGAGGVPGADDIDQLREDVEAALGEAALAQERQQLLQLEVTDLQRQRNDLGARMEELAAEHAAALQPVIAQARGEAAALVDELDEERRRVEAAHGELEDMKSKLAAVQEEIEAMGETKAVERANLVKVDPLPDKARRQSEAVAAILKSVQGQLESMNARYGEHDTQYKTAAEREQQLTEEHTKMLTALERGRVQVESKARHADDVRKDVELASIEADKILADQVELDLRVKNLALELKAESDHLNRRQREKELMLRQYRVADQQLKDARDMLPNLKFQVEQMHRDVNTLEARRRAQSRELSDVKRELDIQMAAFLHEEADGKEKVALFQLTYKEVAALEAELAALKREEAERDTILRDLGSQRDRVALAIAQKLSKVKDVQMTSRIKEVELAELKKIRKEVGRRIRDFEKLYDLVKNQRNKFVNLIQAASQSTTEMKDKLKVLQNELDILQNEVGIKDKLLQQQHTQHAANIAERDQLRVELGRLGMVFRDKQAVVDEQIAEVDKLNAIINGCEKEMLRLKKQYELVIEARNYTGIMLIDRNDELCVLYEKANILDEVIKSGQLELMRREDEARLLRLEVGELERSIGVTRRLVPSVPLLDNDVAALQKALFEARREAEALSLALENPSNQGRWRLLEGKIPDREELSAKIQALEERLNDKKEQLLEKELILEEITSLSDKLRVQAAEGRADTLELAQRVNEYQSKLRAVTRKIMATVSELSMYQASALKLGAEKEELEGAVSLASQRLEAGEPPTDDAEREWYRLERERHTVDAMAEERRAVAAALDARVAEVQSTAEPRPNAYIPEQLGIPKPYGSFAPFKPQEAGSTMRHIRKPSPKEVVI | not soluble |
| MDDPVADQPDGTDETPDGDTAGSSPIGLADAQARAREAVAELLEHPFDGIITAESGADGGWRILAEVVERSAVPDTQDIIGRYEITLDDGGRVLEHHHHHH | not soluble |
| MDDRGGSFVAVRRISQGLERGSVYHSSSAEVVAGSAAWLGRGLSCVCVQGRDGDPRPSFDLTPAQEECLQRLQSRIDVAYDSSIPQHQEALKDLWKLAFPEEELHGIVSDQWKEMGWQGKDPSTDFRGGGFISLENLLYFARKFPKSFHGLLRKQVGDRSVWEYPFAVAGINITFMLIQMLDLEAVNESAFDLLYCIAFKLMDQQWLSMRASYMEFNTVMKSTRRQLEREIMIEDITSLEDLPSYSLLSQ | soluble |
| MDEDLTPIPSLTPDIQKFRIYGRVTYFQENKNGNGIHFLLTDSLGCSIKCIVTVEAVVKHCKDQLKLGQPCYVRGGRVDYHDKRYPNRTGHDCVIFNNNIAEIQITTVATNFVTPIATLNAPKIIYKVHGMITQRGKYSKKEVFCFVITDDKGDSVNVAAFCEFADWLYENLKEKQWYYLYCGLIEKVCKPDDQKEPNNVIILHNKCQIETPSDPSVADPFAELDDLNCTINKMKL | not soluble |
| MDEFPPIFIISLKDSPRKNIIAERLNALGLSFNFFDAIYGKELSKKQLSEINYDFYIQKFNARKRLTLGEIGCAISHIKLYEYIVKNNINEAIILEDDAIVSIYFKDIICDALKKISCKYEILFLDHGKAKIFPFTRSLVERYRLAKYISPSKKSKRIIIRTTAYIITLNGARKLLNYAYPIRMPSDYLTGTLQLTGINAYGIEPPCVFGGPISEIDQIEDRYCLEHHHHHH | not soluble |
| MDEGIRASGGIRACQTGKQKQGRKRPVTGKKRIVVGMSGGVDSSVTAWLLKQQGHEVIGVFMQNWEDDNDDEYCSIKQDALDAMSVADIVGIDMEIVNFAKEYKDRVFSYFLKEYSAGRTPNPDVLCNAEIKFKAFLDYAMELGADCIATGHYARKLEQDGTHYLMKAVDHTKDQSYFLYRLQQHQLAKAIFPLGDIRKTEVRRLAEEAGLPTAAKKDSTGICFIGERPFREFLQRYLPTSPGQMVTPDGKVVGEHIGLMYYTLGQRKGLTIGGSRDGNGEPWFVAGKDIPGNKLIVVQGHDHPLLLKPTLSMADLSWTLPDAPAPGEYSAKNRYRMADAACTLSPIVDGQASLTFQEKQWAVTPGQSAVLYHGDICLGGGIIQLEHHHHHH | not soluble |
| MDFELCPKFEKTFSILGKKWNGLIIDVLLEDGPQRFKNLARRIPKCSDRVLVVRLKELEENGIVSRVTHCDSALIEYRLTTKGQDLRQVMDTVHNWSDKWFSPAES | not soluble |
| MDFPTISRSPSGPPAMDLEGPRDILVPSEDLTPDSQWDPMPGGPGSLSRMELDESSLQELVQQFEALPGDLVGPSPGGAPCPLHIATGHGLASQEIADAHGLLSAEAGRDDLLGLLHCEECPPSQTGPEEPLEPAPRLLQPPEDPDEDSDSPEWVEGASAEQEGSRSSSSSPEPWLETVPLVTPEEPPAGAQSPETLASYPAPQEVPGPCDHEDLLDGVIFGARYLGSTQLVSERNPPTSTRMAQAREAMDRVKAPDGETQPMTEVDLFVSTKRIKVLTADSQEAMMDHALHTISYTADIGCVLVLMARRRLARRPAPQDHGRRLYKMLCHVFYAEDAQLIAQAIGQAFAAAYSQFLRESGIDPSQVGVHPSPGACHLHNGDLDHFSNSDNCREVHLEKRRGEGLGVALVESGWGSLLPTAVIANLLHGGPAERSGALSIGDRLTAINGTSLVGLPLAACQAAVRETKSQTSVTLSIVHCPPVTTAIIHRPHAREQLGFCVEDGIICSLLRGGIAERGGIRVGHRIIEINGQSVVATPHARIIELLTEAYGEVHIKTMPAATYRLLTGQEQPVYL | soluble |
| MDFVTGAVAHRRKFGGGRGQSIAKAVGLKQGVTPKVVDGTAGLGRDAFVLASLGCTVTMVERHPVVAALLEDGLRRAYQDAEIGDWMRERMQLFHGSSLEALAKLEQGVDVVYLDPMYPHRDKSALVKKEMRVFQTLVGADLDADGLLAPAMALASKRVVVKRPDYAEDLAGVKPSMVIETKKNRFDVYVKSAMKLEHHHHHH | not soluble |
| MDFYYLPGSAPCRAVQMTAAAVGVELNLKLTNLMAGEHMKPEFLKLNPQHCIPTLVDEDGFVLWESRAIQIYLVEKYGAHDADLAERLYPSDPRRRAVVHQRLFFDVAVLYQRFAEYYEPQIFGQKVPVGDPGRLRSMEQALEFLNTFLEGEQYVAGGDDPTIADLSILATIATYEVAGYDLRRYENVQRWYERTSAIVPGADKNVEGAKVFGRYFTQK | soluble |
